{"source": "patent US11136407", "key": {"[1]": {"molecular_target": "CD9-3×FLAG-rabbitFc-Sortase-biotin (human; rabbit)", "experiment": "SPR (IBIS MX96) on CD9 chip"}, "[2]": {"molecular_target": "CD9-3×FLAG-rabbitFc-Sortase-biotin (human; rabbit)", "experiment": "SPR, 1:1 model; unit from the legend paragraph 216"}, "[3]": {"molecular_target": "CD9-3×FLAG-rabbitFc-Sortase-biotin (human; rabbit)", "experiment": "SPR, 1:1 model"}, "[4]": {"molecular_target": "CD9-3×FLAG-rabbitFc-Sortase-biotin (human; rabbit)", "experiment": "ELISA, biotinylated CD9-EC2-Fc on streptavidin plate, goat anti-mouse HRP"}, "[5]": {"molecular_target": "CD9-3×FLAG-rabbitFc-Sortase-biotin (human; rabbit)", "experiment": "SPR (IBIS MX96), antibody injected over CD9-3×FLAG-rabbitFc-Sortase-biotin chip, 1:1 model"}, "[6]": {"molecular_target": "CD9-3×FLAG-rabbitFc-Sortase-biotin (human; rabbit)", "experiment": "SPR; rests on the kd set to 0.1*10^-5; unit from the legend paragraph 216"}, "[7]": {"molecular_target": "CD9-3×FLAG-rabbitFc-Sortase-biotin (human; rabbit)", "experiment": "SPR; * legend: dissociation too low for accurate fitting, a value of 0.1*10^-5 is used"}}, "data": [{"substance": "mouse anti-CD9 antibody clone ALB6", "values": [{"measurement": "fold dissociation against HI9a", "setting": "[1]", "value": 22, "unit": "fold"}, {"measurement": "Kd", "setting": "[2]", "value": 0.145, "unit": "nM"}, {"measurement": "koff", "setting": "[3]", "value": "2.16e-05", "unit": "s⁻¹"}, {"measurement": "kon", "setting": "[3]", "value": 151000, "unit": "M⁻¹ s⁻¹"}, {"measurement": "EC50", "setting": "[4]", "value": 0.013, "unit": "µg/mL"}, {"measurement": "Kd", "setting": "[5]", "value": 0.145, "unit": "nM"}]}, {"substance": "mouse anti-CD9 antibody clone HI9a", "values": [{"measurement": "fold affinity against AT14-012", "setting": "[1]", "value": 19000, "unit": "fold"}, {"measurement": "kon", "setting": "[3]", "value": 430000, "unit": "M⁻¹ s⁻¹"}, {"measurement": "EC50", "setting": "[4]", "value": 0.02, "unit": "µg/mL"}, {"measurement": "Kd", "setting": "[6]", "value": 0.00233, "unit": "nM"}, {"measurement": "Kd", "setting": "[5]", "value": 0.00233, "unit": "nM"}, {"measurement": "koff", "setting": "[7]", "value": "< 1e-06", "unit": "s⁻¹"}]}]}
